From patent publication US20230416361A1 (MIROBIO, published 2023) come the findings set out here.

Where only a bound is given, the exact number is not on record here.

First the molecules themselves.
B1: Antibody I-4P (antibody, human IgG4 S228P, kappa, V domains shown)
VH: QVQLVQSGAEVKKPGASVKVSCKASGFSFSSGYYMAWVRQAPGQGLEWMGLIGVGSGSLWYAQKFQGRVTMTRDTSTSTVYMELSSLRSEDTAVYYCARHFALSDPFNLWGQGTLVTVSS
VL: EIVLTQSPDFQSVTPKEKVTITCQASESIDSYLLWYQQKPDQSPKLLIKQASTLASGVPSRFSGSGSGTDFTLTINSLEAEDAATYYCQNYYDISSNDFGGGTKVEIKR
notes: also called AbI-4P; J-4P
B2: hu2131_v9 (antibody, human IgG1, V domains shown)
VH: QVQLVQSGAEVKKPGASVKLSCKASGHTFTSYWMHWVKQAPGQGLEWIGNIYPGSGSINYDEKFQGRATLTVDTSTRTAYMELSSLRSEDTAVYYCLTMTGTSWGRGTLVTVSS
VL: DIQMTQSPSSLSVSVGDRVTITCQASQGTPINLHWFQQKPGKAPKLLISGASNLEDGVPSRFSGSGSGTDFTFTISSLQPEDIATYYCLQFTYIPWTFGQGTKLEIK
notes: Expressed as human IgG1 with P238D Fc mutation
B3: hu2131_v12 (antibody, human IgG1, V domains shown)
VH: QVQLVQSGAEVKKPGASVKVSCKASGHTFTSYWMHWVRQAPGQGLEWIGNIYPGSGSINYDEKFQGRVTMTVDTSTSTAYMELSSLRSEDTAVYYCLTMTGTSWGRGTLVTVSS
VL: DVQMTQSPSSLSVSVGDRVTMTCQASQGTPINLHWFQQKPGKAPKLLISGASNLEDGVPSRFSGSRYGTAFTLTISSLQPEDIATYFCLQFTYIPWTFGQGTKLEIK
notes: as for B2
B4: hu2131_v19 (antibody, human IgG1, V domains shown)
VH: QVQLVQSGAEVKKPGASVKVSCKASGHTFTSYWMHWVRQAPGQGLEWMGNIYPGSGSINYDEKFQGRVTMTADTSTSTVYMELSSLRSEDTAVYYCLTMTGTSWGRGTLVTVSS
VL: DIQMTQSPSSLSVSVGDRVTITCQASQGTPINLHWFQQKPGKAPKLLISGASNLEDGVPSRFSGSGSGTDFTFTISSLQPEDIATYYCLQFTYIPWTFGQGTKLEIK
notes: as for B2
B5: hu2131_v18 (antibody, human IgG1, V domains shown)
VH: QVQLVQSGAEVKKPGASVKVSCKASGHTFTSYWMHWVRQAPGQGLEWMGNIYPGSGSINYDEKFQGRVTMTADTSTSTVYMELSSLRSEDTAVYYCLTMTGTSWGRGTLVTVSS
VL: DVQMTQSPSSLSVSVGDRVTITCQASQGTPINLHWFQQKPGKAPKLLISGASNLEDGVPSRFSGSRYGTDFTFTISSLQPEDIATYFCLQFTYIPWTFGQGTKLEIK
notes: as for B2
B6: hu2131_v11 (antibody, human IgG1, V domains shown)
VH: QVQLVQSGAEVKKPGASVKVSCKASGHTFTSYWMHWVRQAPGQGLEWIGNIYPGSGSINYDEKFQGRVTMTVDTSTSTAYMELSSLRSEDTAVYYCLTMTGTSWGRGTLVTVSS
VL: DVQMTQSPSSLSVSVGDRVTMTCQASQGTPINLHWFQQKPGKAPKLLISGASNLEDGVPSRFSGSRYGTAFTLTISSLQDEDIATYFCLQFTYIPWTFGQGTKLEIK
notes: as for B2
B7: hu2131_v14 (antibody, human IgG1, V domains shown)
VH: QVQLVQSGAEVKKPGASVKVSCKASGHTFTSYWMHWVRQAPGQGLEWIGNIYPGSGSINYDEKFQGRVTMTVDTSTSTAYMELSSLRSEDTAVYYCLTMTGTSWGRGTLVTVSS
VL: DIQMTQSPSSLSVSVGDRVTITCQASQGTPINLHWFQQKPGKAPKLLISGASNLEDGVPSRFSGSGSGTDFTFTISSLQPEDIATYYCLQFTYIPWTFGQGTKLEIK
notes: as for B2
B8: hu2131_v10 (antibody, human IgG1, V domains shown)
VH: QVQLVQSGAEVKKPGASVKLSCKASGHTFTSYWMHWVKQAPGQGLEWIGNIYPGSGSINYDEKFQGRATLTVDTSTRTAYMELSSLRSEDTAVYYCLTMTGTSWGRGTLVTVSS
VL: DIQMTQSPSSLSVSVGDRVTITCQASQGTPINLHWFQQKPGKAPKLLISGASNLEDGVPSRFSGSGSGTEFTFTISSLQPEDAATYYCLQFTYIPWTFGQGTKLEIK
notes: as for B2
B9: hu2131_v13 (antibody, human IgG1, V domains shown)
VH: QVQLVQSGAEVKKPGASVKVSCKASGHTFTSYWMHWVRQAPGQGLEWIGNIYPGSGSINYDEKFQGRVTMTVDTSTSTAYMELSSLRSEDTAVYYCLTMTGTSWGRGTLVTVSS
VL: DVQMTQSPSSLSVSVGDRVTITCQASQGTPINLHWFQQKPGKAPKLLISGASNLEDGVPSRFSGSRYGTDFTFTISSLQPEDIATYFCLQFTYIPWTFGQGTKLEIK
notes: as for B2
B10: hu2131_v17 (antibody, human IgG1, V domains shown)
VH: QVQLVQSGAEVKKPGASVKVSCKASGHTFTSYWMHWVRQAPGQGLEWMGNIYPGSGSINYDEKFQGRVTMTADTSTSTVYMELSSLRSEDTAVYYCLTMTGTSWGRGTLVTVSS
VL: DVQMTQSPSSLSVSVGDRVTMTCQASQGTPINLHWFQQKPGKAPKLLISGASNLEDGVPSRFSGSRYGTAFTLTISSLQPEDIATYFCLQFTYIPWTFGQGTKLEIK
notes: as for B2
B11: hu2131_v15 (antibody, human IgG1, V domains shown)
VH: QVQLVQSGAEVKKPGASVKVSCKASGHTFTSYWMHWVRQAPGQGLEWIGNIYPGSGSINYDEKFQGRVTMTVDTSTSTAYMELSSLRSEDTAVYYCLTMTGTSWGRGTLVTVSS
VL: DIQMTQSPSSLSVSVGDRVTITCQASQGTPINLHWFQQKPGKAPKLLISGASNLEDGVPSRFSGSGSGTEFTFTISSLQPEDAATYYCLQFTYIPWTFGQGTKLEIK
notes: as for B2
B12: hu2131_v16 (antibody, human IgG1, V domains shown)
VH: QVQLVQSGAEVKKPGASVKVSCKASGHTFTSYWMHWVRQAPGQGLEWMGNIYPGSGSINYDEKFQGRVTMTADTSTSTVYMELSSLRSEDTAVYYCLTMTGTSWGRGTLVTVSS
VL: DVQMTQSPSSLSVSVGDRVTMTCQASQGTPINLHWFQQKPGKAPKLLISGASNLEDGVPSRFSGSRYGTAFTLTISSLQDEDIATYFCLQFTYIPWTFGQGTKLEIK
notes: as for B2
B13: Antibody hu2131_Q1E hIgG1k P238D (antibody)
heavy: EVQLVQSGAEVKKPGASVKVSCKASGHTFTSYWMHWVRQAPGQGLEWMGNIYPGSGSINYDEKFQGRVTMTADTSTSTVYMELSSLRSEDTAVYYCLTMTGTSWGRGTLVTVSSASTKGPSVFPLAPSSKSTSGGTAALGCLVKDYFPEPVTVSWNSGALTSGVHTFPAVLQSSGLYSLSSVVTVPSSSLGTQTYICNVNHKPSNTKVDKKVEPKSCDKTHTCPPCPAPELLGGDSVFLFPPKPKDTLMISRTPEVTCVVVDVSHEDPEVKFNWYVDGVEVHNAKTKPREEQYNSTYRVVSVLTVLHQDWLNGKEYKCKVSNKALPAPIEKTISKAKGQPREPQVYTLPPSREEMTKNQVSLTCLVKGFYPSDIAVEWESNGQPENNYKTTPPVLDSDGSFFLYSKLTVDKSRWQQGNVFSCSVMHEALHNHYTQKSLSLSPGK
light: DIQMTQSPSSLSVSVGDRVTITCQASQGTPINLHWFQQKPGKAPKLLISGASNLESGVPSRFSGSGSGTEFTFTISSLQPEDAATYYCLQFTYIPWTFGQGTKLEIKRTVAAPSVFIFPPSDEQLKSGTASVVCLLNNFYPREAKVQWKVDNALQSGNSQESVTEQDSKDSTYSLSSTLTLSKADYEKHKVYACEVTHQGLSSPVTKSFNRGEC

The first assay concerns the target T1, monomeric soluble human CD200R extracellular domain (human, UniProt Q8TD46 29-265).
T1 construct: extracellular domain; also called hCD200R; monomeric CD200R protein
T1 sequence (looked up): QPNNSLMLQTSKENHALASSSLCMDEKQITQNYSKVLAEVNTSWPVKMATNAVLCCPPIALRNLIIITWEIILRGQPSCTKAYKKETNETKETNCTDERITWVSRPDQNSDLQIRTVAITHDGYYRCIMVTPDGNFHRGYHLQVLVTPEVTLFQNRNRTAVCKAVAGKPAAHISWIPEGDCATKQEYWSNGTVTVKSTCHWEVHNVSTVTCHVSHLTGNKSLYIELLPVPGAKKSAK
Briefly: BLI (Octet), antibody on anti-human Fc probes, monomeric CD200R in solution, 25 C, 1:1 global fit. As for the experimental part: Humanised variant antibodies combining the different heavy and light variable domains described in Example 6 were produced by transient transfection of HEK293 cells. All antibodies were expressed on a human IgGI isotype with a P238D Fc mutation. The unpurified supernatants were analysed by Protein A-HPLC to determine the antibody concentrations, as a measure of expression yield. […] Binding affinity of humanized variants to human CD200R was assessed by bio-layer interferometry on an Octet R4 instrument. Each antibody was captured directly onto anti-human Fc capture probes (Sartorius 18-5060) for 60 sec followed by baseline setting in assay buffer (DPBS, 0.01% Polysorbate-20). Association of monomeric CD200R protein to immobilised antibodies was measured in 4 different protein concentrations (300, 100, 30 and 10 nM in assay buffer) at 25° C., with an association time of 120s and dissociation of 120s in assay buffer only. A reference probe with no antibody immobilised was used for background subtraction. Kinetic rate constants and binding KDs were calculated using Octet Analysis Studio 12 software. Global curve fitting based on all 4 concentrations using a 1:1 model was performed, from which kon and koff were obtained to calculate KD using the relationship KD=koff/kon.
(BLI is a label-free optical method that tracks binding on a fibre tip over time.)
With B1, the Kd (usually the equilibrium constant for the complex coming apart) worked out at 2160 pM. On the same count and under the same terms, to B2 belongs 3.07 pM; to B3, 4.14 pM; to B4, 4.23 pM. On the same count and under the same terms, to B5 belongs 34.4 pM; to B6, 2.45 pM; to B7, 2.9 pM. The same measure, in the same setting: then B8, with 4.43 pM; and B9, with 2.94 pM; and B10, with 183 pM.

Regarding B11, binding was put at a Kd of 3.18 pM. B12 showed a dissociation constant (Kd) of 1.03 pM. Compared with the last molecule, the Kd is about 3.1-fold lower.

The next assay has as its target T2, extracellular domain of cyno CD200R (SinoBiological 11232-C08H, Met1-Leu267) (cynomolgus, UniProt G7NZT0 25-268).
T2 construct: range 1-267; Bought protein
T2 sequence: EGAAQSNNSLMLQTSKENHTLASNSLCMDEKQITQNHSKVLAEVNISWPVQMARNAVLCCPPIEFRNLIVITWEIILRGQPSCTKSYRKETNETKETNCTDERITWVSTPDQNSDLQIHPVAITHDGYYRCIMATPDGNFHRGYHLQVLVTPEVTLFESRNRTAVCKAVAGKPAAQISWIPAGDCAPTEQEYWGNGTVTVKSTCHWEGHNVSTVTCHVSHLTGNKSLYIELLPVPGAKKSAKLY
As to the kind of experiment: SPR (Biacore), antibody captured by anti-human Fc, CD200R extracellular domain injected, single cycle kinetics, 25 C. As for the experimental part: This example investigates in vitro CD200R binding of anti-CD200R antibodies by surface plasmon resonance. Surface plasmon resonance binding experiments with purified anti-CD200R antibody (expressed on a hIgG1 isotype with a P238D Fc mutation) were performed using the Biacore T200 and 8K+instruments. Anti-human Fc antibody (Life Technologies H10500) was amine-coupled to a C1 sensor chip using standard amine-coupling chemistry. Residual activated carboxyls were blocked with ethanolamine. Antibodies with a human Fc were then captured on these surfaces.
To assess the binding of hu2131_v20_D56S antibody and variants (antibody hu213l_Q1E and antibody hu2131_Q1E_M99G) to the extracellular domains of human CD200R (Met29-Leu243) and cyno CD200R (SinoBiological 11232-C08H, Metl-Leu267), 10-30 RUs of antibody were captured. CD200R proteins were diluted into running buffer (10 mM HEPES, 150 mM NaCl, 3 mM EDTA, 0.01% Polysorbate 20, pH 7.4 with 0.1 mg/mL BSA) (full-length antibody sequences are disclosed in Table 10). Five three-fold serial dilutions were performed for each CD200R, with highest concentration being 100 nM. Samples were injected using a single cycle kinetics scheme (Karlsson Anal Biochem et al 2006). Data were analyzed using Biacore Insight Evaluation Software and fit to a simple kinetic model, from which kon and koff were obtained to calculate KD using the relationship KD=koff/kon. Experiments were run at 25° C.
Consider B13, for which the Kd is at most 0.0392 nM; the koff (as a rule, the first-order rate constant of dissociation) was at most 1e-05 s⁻¹; the kon (usually the second-order rate constant of association) was 255000 M⁻¹ s⁻¹.
